The text below walks through data of the RNAGym collection of RNA variant scans (doi:10.1073/pnas.2313332121).

The labels stand for the following.
B1: TPR t1 (parent)
chain: GACCAAUCUGCCCUCAGAGCUCGAGAACAUCUUCGGAUGCAGAGGAGGCAGGCUUCGGUGGCGCGAUAGCGCCAACGUCCUCAACCUCCAAUGCAUCCCACCACAUGAUGAUGCCUGAAGAGCCUUGGUUUUUUG

The data set covers variants of B1. Briefly: polymerase ribozyme fitness, log enrichment relative to wild type (log ratio); higher = more active; in vitro selection for triplet polymerase activity. The essentials: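 Libraries of mutants in each subunit of a heterodimeric triplet polymerase ribozyme were generated by PCR and transcribed. In triplicate, each went through one in vitro selection round: annealing with biotinylated primer, partner subunit and triplets; frozen incubation at −7 °C; gel excision of extended constructs; streptavidin-bead capture; RT-PCR. Fitness, taken from Illumina sequencing of input and output libraries, is the logarithm of a genotype's enrichment over wild-type enrichment, averaged across replicates with inverse-variance weights. The logarithm is base 2, and genotypes needed ≥10 input reads and ≥1 read per output to be kept.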
Regarding C8A G51C C73U C94U U130G, the “polymerase ribozyme fitness (log ratio)” value is -3.59.

Turning to U30A G61A C88U, the “polymerase ribozyme fitness (log ratio)” value was -5.29.

C20A U125A: the “polymerase ribozyme fitness (log ratio)” value was -3.22.

Consider C8G C20G C34U U112A, for which the “polymerase ribozyme fitness (log ratio)” value is -5.8.

As for C28G G39U C53U G63C C124A, the “polymerase ribozyme fitness (log ratio)” value was -3.26.

On to C8A G35C G71A, for which the “polymerase ribozyme fitness (log ratio)” value was -5.94.

For C11G A41C C56U G93A C123G G135U, the “polymerase ribozyme fitness (log ratio)” value was -3.49.

Turning to C64A C80G A83U C99U A103C U125A, the “polymerase ribozyme fitness (log ratio)” value is -7.56.

Turning to C4G G10A, the “polymerase ribozyme fitness (log ratio)” value is -1.4.

For the variant C11G A18U G44A G69U, the “polymerase ribozyme fitness (log ratio)” value amounted to 0.139.

Regarding U78G C97U U116C A121U U131A, the “polymerase ribozyme fitness (log ratio)” value was 0.0734.

For the variant G47A C56U C94U, the “polymerase ribozyme fitness (log ratio)” value was -1.1.

For G35A G71A, the “polymerase ribozyme fitness (log ratio)” value was -4.49.

For C12A C62A C98A, the “polymerase ribozyme fitness (log ratio)” value was -6.54.

As for U14A G61A, the “polymerase ribozyme fitness (log ratio)” value is -1.88.

Regarding A111C G113U, the “polymerase ribozyme fitness (log ratio)” value was -3.68.

In the case of G36A G107A C124A, the “polymerase ribozyme fitness (log ratio)” value is -7.46.

For the variant U81G, the “polymerase ribozyme fitness (log ratio)” value is -3.8.

Take C88G C104U C123G: the “polymerase ribozyme fitness (log ratio)” value amounted to 1.53.

As to C70U U129C, the “polymerase ribozyme fitness (log ratio)” value is -0.753.

For the variant G47U G58U G120U, the “polymerase ribozyme fitness (log ratio)” value was -1.02.

Turning to C62U U78C C94A, the “polymerase ribozyme fitness (log ratio)” value is -1.92.

C56A C72U C104A: the “polymerase ribozyme fitness (log ratio)” value was -1.61.

A83C C104A: the “polymerase ribozyme fitness (log ratio)” value was -1.32.

Turning to C56U C97U, the “polymerase ribozyme fitness (log ratio)” value is -0.00643.

As to C56A C123U C124U, the “polymerase ribozyme fitness (log ratio)” value turned out to be 1.2.

Turning to C22G C72U, the “polymerase ribozyme fitness (log ratio)” value is -3.13.

As to G69C A91G, the “polymerase ribozyme fitness (log ratio)” value was -1.94.

On to A66G A100U G128A, for which the “polymerase ribozyme fitness (log ratio)” value was -5.33.

As to A5G G44A, the “polymerase ribozyme fitness (log ratio)” value was -0.648.

For C8A A26U C115U, the “polymerase ribozyme fitness (log ratio)” value was -5.1.

As to G39A G42A A46G G58A, the “polymerase ribozyme fitness (log ratio)” value is -2.47.

In the case of C28U A50U C62U A68G U106A G110A C114A, the “polymerase ribozyme fitness (log ratio)” value is -6.37.

On to A75U A95C U116C U125C, for which the “polymerase ribozyme fitness (log ratio)” value is -3.04.

In the case of A18C G63C, the “polymerase ribozyme fitness (log ratio)” value was -4.

With C28U G63C U78C U92G C99G A103U G110A, the “polymerase ribozyme fitness (log ratio)” value is -4.52.

For A50C A75G A95C, the “polymerase ribozyme fitness (log ratio)” value was -0.114.

For the variant U78C U131C, the “polymerase ribozyme fitness (log ratio)” value was -0.936.

On to C3G U9G A43G G61A C114A U131A, for which the “polymerase ribozyme fitness (log ratio)” value is -3.

As to A18U C28U A50U C98A, the “polymerase ribozyme fitness (log ratio)” value was -7.62.

Turning to A2G C79A, the “polymerase ribozyme fitness (log ratio)” value is -0.844.

In the case of C12U C53U C56U, the “polymerase ribozyme fitness (log ratio)” value is -0.154.

For the variant G19U U21G C49A G71A C114A, the “polymerase ribozyme fitness (log ratio)” value is 0.71.

Take C8U G52U A105G: the “polymerase ribozyme fitness (log ratio)” value was -3.89.

As to C8U G69U G93C, the “polymerase ribozyme fitness (log ratio)” value stood at 0.148.

As to A66G U126G, the “polymerase ribozyme fitness (log ratio)” value was -2.72.

Consider G52U C88U C98A G120U, for which the “polymerase ribozyme fitness (log ratio)” value was -5.88.

On to G36U G60C G69U A100U, for which the “polymerase ribozyme fitness (log ratio)” value was -4.04.

In the case of C12G C86G C89G C104U, the “polymerase ribozyme fitness (log ratio)” value is -1.35.

For the variant A26U C124U, the “polymerase ribozyme fitness (log ratio)” value is -2.17.

With C31G C88G G110A U126G, the “polymerase ribozyme fitness (log ratio)” value was -6.03.

As to C4A C11G G44C U54C, the “polymerase ribozyme fitness (log ratio)” value was -1.66.

For C13G C20A C49U C64U U96G, the “polymerase ribozyme fitness (log ratio)” value was -4.56.

In the case of C13U A18G G52C, the “polymerase ribozyme fitness (log ratio)” value is -3.22.

On to A2C G63C U130A, for which the “polymerase ribozyme fitness (log ratio)” value is -2.69.

For the variant C31U C82A, the “polymerase ribozyme fitness (log ratio)” value was -5.41.

Turning to A95G, the “polymerase ribozyme fitness (log ratio)” value came out at 0.119.

Regarding U21A C49A C56A A121U, the “polymerase ribozyme fitness (log ratio)” value worked out at 0.0625.

Regarding C40U C88A C114G, the “polymerase ribozyme fitness (log ratio)” value is -2.99.

For the variant A41C C72A U92G G120U U129C, the “polymerase ribozyme fitness (log ratio)” value is -2.57.

For G63A C79U, the “polymerase ribozyme fitness (log ratio)” value was -1.07.

Turning to C8G G135U, the “polymerase ribozyme fitness (log ratio)” value is -0.819.

Regarding C88U G113U, the “polymerase ribozyme fitness (log ratio)” value was -3.09.

Consider A43G C64U, for which the “polymerase ribozyme fitness (log ratio)” value was -1.23.

In the case of A26C G69C, the “polymerase ribozyme fitness (log ratio)” value is -7.17.

On to G17U G61A U81G C101G G117C G128U, for which the “polymerase ribozyme fitness (log ratio)” value was -7.2.

On to G39C C62A, for which the “polymerase ribozyme fitness (log ratio)” value was -0.902.

On to G57U U87G G113A C123U, for which the “polymerase ribozyme fitness (log ratio)” value is -1.98.

For the variant C13G G71C, the “polymerase ribozyme fitness (log ratio)” value is -3.5.

In the case of C40G C70U U106A U116A G120C, the “polymerase ribozyme fitness (log ratio)” value was -2.18.

As for U32C C56U C72U A111U, the “polymerase ribozyme fitness (log ratio)” value is -3.66.

Consider G10C G39A G61A, for which the “polymerase ribozyme fitness (log ratio)” value was -1.27.

As for C97G A103U, the “polymerase ribozyme fitness (log ratio)” value is -5.1.

Take C13G C22U G113A: the “polymerase ribozyme fitness (log ratio)” value was -4.71.

Regarding A43U G61U G93U, the “polymerase ribozyme fitness (log ratio)” value was -1.76.

As to C4G C22U G23A A66U A83G C97G C99U U106A G113U C124A, the “polymerase ribozyme fitness (log ratio)” value is -7.47.

C82G C114U: the “polymerase ribozyme fitness (log ratio)” value is -2.95.

For C20U G42C C88G U112A G117A, the “polymerase ribozyme fitness (log ratio)” value was -6.

With G61U C89G, the “polymerase ribozyme fitness (log ratio)” value is -1.53.

Take C12U G52A U112A G120A: the “polymerase ribozyme fitness (log ratio)” value was determined as 1.03.

As to C64U C86A, the “polymerase ribozyme fitness (log ratio)” value is -1.42.

Regarding C15U G58C C72A C102G G107U A121C, the “polymerase ribozyme fitness (log ratio)” value is -6.59.

As for A27G A46G C89G, the “polymerase ribozyme fitness (log ratio)” value is -4.52.
